Reference: paper PMC3094505
pKd: −log10 of the molar value. Where two headings read alike, the source gives them in different places.

Assays:
[1] = molecular target: Fluoresceinated Nav1.2IQp, peptide of residues 1901-1927 of the Nav1.2 alpha-subunit; test: fluorescence polarisation
[2] = molecular target: Fluoresceinated Nav1.2IQp, peptide of residues 1901-1927 of the Nav1.2 alpha-subunit; test: fluorescence polarisation; remark: listed apart in the source

- pKd [1]: 5.79
- pKd [2]: 4.15
Substance: Paramecium calmodulin N-domain (residues 1-80) (from UniProt P07463 2-81) (domain or fragment)
